Legend:
[1] = target: 14-3-3κ (UniProt P48348); assay: isothermal titration calorimetry
[2] = target: Arabidopsis 14-3-3 isoform kappa (At14-3-3-κ^1−248) (Arabidopsis thaliana) (UniProt P48348); assay: ITC; Nano ITC, 25°C, 25 mM Hepes pH 7.0, 50 mM KCl; 600 μM peptide or phosphopeptide injected into 50 μM 14-3-3 protein in the cell, 25 injections
[3] = target: biotinylated 14-3-3 ω dimer (Arabidopsis thaliana) (UniProt Q01525); assay: grating-coupled interferometry (GCI); Creoptix WAVE; biotinylated 14-3-3 ω dimer captured on a streptavidin-coated 4PCH chip (~500 pg/mm^2); peptide as analyte, 2-fold dilution series from 10 µM; 25°C; 20 mM Hepes, 150 mM NaCl; 1-to-1 (2:2) binding model
Sequence of biotinylated 14-3-3 ω dimer (Arabidopsis thaliana) (Q01525 whole entry): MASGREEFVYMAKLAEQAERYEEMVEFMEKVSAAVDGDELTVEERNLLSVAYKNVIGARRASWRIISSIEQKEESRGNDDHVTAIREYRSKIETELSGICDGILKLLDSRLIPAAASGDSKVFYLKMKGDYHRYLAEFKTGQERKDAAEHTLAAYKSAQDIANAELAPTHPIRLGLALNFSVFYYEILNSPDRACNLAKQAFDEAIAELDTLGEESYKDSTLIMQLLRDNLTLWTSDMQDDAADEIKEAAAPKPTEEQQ

Sequence of Arabidopsis 14-3-3 isoform kappa (At14-3-3-κ^1−248) (Arabidopsis thaliana) (P48348 whole entry, canonical isoform): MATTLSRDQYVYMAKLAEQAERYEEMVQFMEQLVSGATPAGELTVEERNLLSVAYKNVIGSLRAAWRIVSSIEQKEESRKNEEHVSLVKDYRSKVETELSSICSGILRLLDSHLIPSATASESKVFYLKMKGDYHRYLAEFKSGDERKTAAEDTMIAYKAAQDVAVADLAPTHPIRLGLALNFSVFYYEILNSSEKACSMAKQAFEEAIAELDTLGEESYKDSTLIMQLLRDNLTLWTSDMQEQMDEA
Sequence of 14-3-3κ (P48348 whole entry, looked up, canonical isoform): as the sequence (P48348 whole entry, canonical isoform) above

BKI1 265-272 (from UniProt Q9FMZ0) pS270 peptide
KD ([1]; reference: unphosphorylated BKI1 265-272 peptide, sites S270): gained; reference No binding was detected

pBKI1^265−272 peptide
Kd [2]: 16000 nM
stoichiometry N [2]: 1

BRI1 869-874 (from UniProt O22476) pT872 peptide
binding against the reference ([1]; reference: unphosphorylated BRI1 869-874 peptide, sites T872): gained

pBZR1^169−175 peptide
Kd [3]: 500 nM
complex lifetime [3]: 1 s
Kd [2]: 500 nM
stoichiometry N [2]: 1

pBRI1^869−874 peptide
stoichiometry N [2]: 1
